Assay: label from the status in PepcDB records

Sequence | protein production
MKPIDEELLLEQLIDNVKNCKDLEAAKALLFEICGHDAILEKAVDYCIFCHEGQFRKSGEPYAVHPILVATLVGFLSENKSNILAALLHDVIEDTNCTEEELREQFGSEVLKLVLGLTKIIEIREDNLISSKSKKSLTKSALTFRNMLLASIEDVGVLIVKLCDRLHNMLTLDILREDKQKRISEETLVVYAPIAHRLGISSIKNYLEDLSFKYLMPDEYKLIDNYINSNNQEMQLGLNEFISKIELLFLSNGFRQGSFEIQKRIKHSYSIYLKMQRKGIGIEEVLDLLGVRILVEKVSDCYLALGILHTHFNPLVSRFKDYIALPKQNGYQTIHTTLFDAKSIIEAQIRTFDMHKIAEFGIAAHWKYKEDGSVVAPRLDWLTDISMQSINNLENAEDYNAIELYEYAKDSLYVEDVAVYSPKGEIFTLPRGATVLDFAYEVHTKVGLHAKSAYVNRIKVPLLTELKNGDIVRVVTSNDKFYRCSWIDSVKTGKAKASIREFCKQKIREINLASSINMLSFIFGVDKNRIETWIEKENLVRRIRQVATDSAYLKDIVNGLKKYAKKSYWFDKYEIKEQKIGNFTLYCNHKIANVDFDFCCHPKRGDAVLAFVKGGNAIVHHKLCDRADKMIDNNQDMVFIKWDSNIPKSYKLIFSLENKKGVLAEFLAFLAKMQINLLTINLSSDLNSAVDYFEITMEIPDNINPDSVKDRLKSRCKILDFTSLNDAYKES | failed
MKPIHVGLLGLGTVGGGTLTVLRRNAEEITRRAGREIRVVRAAVRNLDKAEALAGGLPLTTNPFDVVDDPEIDIVVELIGGLEPARELVMQAIANGKHVVTANKHLVAKYGNEIFAAAQAKGVMVTFEAAVAGGIPIIKALREGLTANRIEWLAGIINGTSNFILSEMRDKGAAFDDVLKEAQRLGYAEADPTFDIEGIDAAHKLTILSAIAFGIPMQFERAYTEGISQLTREDVRYAEELGYRIKLLGIARRAENGIELRVHPTLIPERRLIANVDGAMNAVLVKGDAVGPTLYYGAGAGSEPTASAVVADLVDVTRLHTADPHHRVPHLAFQPDQLADTPILPMEAVRTAYYLRLRAFDRPGVLADITRILADSSISIDAMVQKEPAEGEEQVDIILLTHVTLEKNVNAAIAKIEALDAVAGKVMRIRLEDLGAK | not failed
MKPLHLKLNNFGPFLKEEIDFSKIDNNELFLISGKTGSGKTMIFDAMTYALFGKASTEQREENDLRSHFADGKQPMSVTFEFQLNHRIYKVHRQGPYIKEGNTTKTNAKFDVFEMVDGKYEIRESKVISGTQFIIELLGVNADQFRQLFILPQGEFKRFLISNSREKQGILRTLFDSEKFEAIREILKEELKKEKAQIENRYQQIDLLWQEIESFDDDKIKGLLELAT | failed
MKPLKEVVGAYLALSDAQRQLVAGEYDEAAANCRRAMEISHTMPPEEAFDHAGFDAFCHAGLAEALAGLRSFDEALHSADKALHYFNRRGELNQDEGKLWISAVYSRALALDGLGRGAEAMPEFKKVVEMIEERKGETPGKERMMEVAIDRIAQLGAS | not failed
MKPSLRIYRYPPPPSQRTPCALTIGNFDGVHLGHQAILARVRQEARARGLVPAVMTFEPHPREYFATLNRRPELAPTRISGLRDKLQALAAAGIEQVAVERFDARLAEMSANAFIEDLLVAGLQTRWLLVGEDFRYGHKRSGDIDLLREAGLAHGFEVCTLADITDRQGHRISSSEVRTALAVGDLDRAAQLLGQPFHISGHVIHGRKLGRELGFPTMNLRVAPRCATRSGIYVVRVLGLQDRPLPAVASLGVRPTVEDRGRVLLEAHLLDESLDAYGKLVRVEFLHKLRDEEKFADLPSLTAAIAQDAQNARAYFAVHGL | failed
MKPSVSITGEQEAHKVAAIFETETDANGVARVLSQETSLDHEQVIVVSPQDQHPGEELEPENQGIWQTLVRSHLWLGIGGAVAGFIVFLILSAIGVGFIAQNGVVAAAVLAALGLILGLLVAGGVTLRPDHTPYVAKAQSALKEGKYVLTVHASSSEQLKEATTVLKNRNVRLVRTI | failed
MKPVKPPRINGRVPVLSAQEAVNYIPDEATLCVLGAGGGILEATTLITALADKYKQTQTPRNLSIISPTGLGDRADRGISPLAQEGLVKWALCGHWGQSPRISDLAEQNKIIAYNYPQGVLTQTLRAAAAHQPGIISDIGIGTFVDPRQQGGKLNEVTKEDLIKLVEFDNKEYLYYKAIAPDIAFIRATTCDSEGYATFEDEVMYLDALVIAQAVHNNGGIVMMQVQKMVKKATLHPKSVRIPGYLVDIVVVDPDQSQLYGGAPVNRFISGDFTLDDSTKLSLPLNQRKLVARRALFEMRKGAVGNVGVGIADGIGLVAREEGCADDFILTVETGPIGGITSQGIAFGANVNTRAILDMTSQFDFYHGGGLDVCYLSFAEVDQHGNVGVHKFNGKIMGTGGFIDISATSKKIIFCGTLTAGSLKTEIADGKLNIVQEGRVKKFIRELPEITFSGKIALERGLDVRYITERAVFTLKEDGLHLIEIAPGVDLQKDILDKMDFTPVISPELKLMDERLFIDAAMGFVLPEAAH | not failed
MKPVKVGICGLGTVGGGTFNVLERNAEEIARRAGRGIEVAQIAARRPNPKCDTGATPITADIFDVACNPEIDVVVELIGGYTLAHELVLKAIENGKHVVTANKALIAVHGNEIFAKAREKGVIVAFEAAVAGGIPVIKAIREGLSANRINWLAGIINGTGNFILSEMREKGRTFPDVLAEAQALGYAEADPTFDVEGIDAAHKLTILASIAFGIPLQFDKAYTEGISKLTSADVNYADALGYRIKHLGVARRTESGFELRVHPTLIPSDRLIANVNGVMNAVMVNGDAVGSTLYYGAGAGMEPTASSVVADLVDVVRAMTSDPENRVPHLAFQPDALSDHPILPIEACESAYYLRIQAKDHPGVLAQVATILSERGINIESIMQKEAEEQDGLVPMILVTHRVIEQRINDAIAALEALEGVSGPVVRIRVEQL | not failed
MKQESPRLENTTPVEEKMTRSLLDHLTRLKPTRLVIFTSVFLSCLLLSLGFVFLQPATYQSYATLLTVAKTAIDQASREADIQHVAIQKQVLLGSELLTETADRLRKGDDAEAGINLTHAAIRDMLDVRPVDDTNLVEMVAEGNEPGLLPRLINTWIDVYLDARSAEIARSKGSTVEMMQEELVALTEKIQQKRLELEQFRQHNEIVSTERQDNEALARLKGLTDSLNKASEEEVKAKARLDTIRKSIERGQIVVPNEDTRTLSALERRAQELREQLEELDRQYTREYMALSPDLKVIPDKLRALEDEIQHIRRKGQTVVVSDAEQEYAAARQATRSIQEQLDQHRKKAAEFTARFTEHDALKSDLEELEQLYRDTQARLAQIEAQHTGKYPYVDVIERAFLPHHPIGPDYLWNAMIATLASLLLGLTAIWILEFLMHKEQEKLAIHLSGIHLHNQDNLPHSAFDVLPSTSVNLPRQPAQALEHTSMNGLTPQQIATLFQTANIREKQLLLLLLSGLTPDEITHLQQDDIDLEHNSLTVRSVPARTIPLHPVLAALYGKYGHCLTDPAGNRLNQEELEALLICLQIDADLSADNQISAEILRQTYILYLVRQGIRLGDLESVTGYISPTELSGYGTYAPAGTRYPVESVNLFYPIDYKQDV | failed
MKQIRLLAQYYVDLMMKLGLVRFSMLLALALVVLAIVVQMAVTMVLHGQVESIDVIRSIFFGLLITPWAVYFLSVVVEQLEESRQRLSRLVQKLEEMRERDLSLNVQLKDNIAQL | not failed
MKQKFSSLFVLLVLLLTGLQVSAQSTPKPFDIEQPSLRVFLPAPELATGRAVVACPGGGYSGLAVNHEGYDWAPYFNKQGIALIVLKYRMPKGDRTLPISDAEAAMKMVRDSADVWNLNPNDIGIMGSSAGGHLASTIATHAPEALRPNFQILFYPVITMDKSFTHMGSHDNLLGKDASADLEKEFSNEKQVTKETPRAFIVYSDDDKVVPPANGVNYYLALNKKGVPSVLHIYPTGGHGWGIREDFLYKSEMQNELTSWLRSFKAPRKDAVRVACIGNSITFGAGIRNRSRDSYPSVLARMLGDSYWVKNFGVSARTMLNKGDHPYMNEPAYKNALAFNPNIVVIKLGTNDSKSFNWKYKADFMKDAQTMIDAFKGLPSQPKIYLCYPSKAYLTGDGINDDIISKEIIPMIKKLAKKNDLSVIDLHTAMDGMPELFPDRIHPNEKGAQVMAKAVYQSISTLK | failed
MKQKLVVMIAAVLILALTVSIASAEDQNDQTSLRSEQNDAFVAGDNLIDSSSVIKYGDPIGSYKNVTAYSNKGNGKYQCVEYVKRFYKEAMNVEPDWDGTGNAITYYTNAEAKGLVSYSNNGSVAPKPDDIIIFSPTDNGYGHVAIITEVGDKYIKIIEQNWNQENAFASLSLEKNGSKYYISPRGASKRPTEGWCRTPILNIISPTKKSFSLVGNYNNPNLLTVDAEVKSENVPITGLNKDNFTIEIGSKKVNDVTVSDVGEGKYKLSFNPPKQDSNGNYDLNVYVKYKKVTLSDSELNAVRYGEDNANANANVMLVIDRSGSMSGSPISSAKNSANLFIDYMEAEDMAGVVSFSSSARYDYHLATLTPEVKNSIKQKINSIYASGVTAIGSGMRYGLNDLLNYGDPNNPWAIVLLSDGYQNSGENPNNVIPSIKASNIQVYTVGLGPAVDQKLLGNIADQTGGKYYYSPTDSQLQEIYNDIVGKIIGWKTVFKRNVKMFIHERVPIAVPIDSAIDKVSFGIGWPGSNVDLVLYKPDGTLVDPSFADSDPTIEYLSGPTYKIYKVTDPESGMWNMELNATDMPAGGEDVYVTVLAESTLSMSLSTNKGQYNQGEVVKIIADLSDAGTQITGADVKVNVTLPDSSVEYLTLYDDGGHGDNGSQDGVYANYLVDTSLMGDYKVDVTSTGSLSDGSQFKRIEDTSFEIIQGISSISSIANLQSTNDITWINWTWTNPTGPNFSHTEIYLDGVFQANTSAEFFNATGLEPETEYTLSTHTVDISGNVNETWVNSTATTSAELVSDVKKPVIDSVNLFPANTTAGATINLSINATDDTAVTEVIAGDIQLIKTDDIWQGSITAPSSIGSYSLLIKAKDAAGNVAEASVPYRVVQLSGGANIAVSPRSSSIVAGNSVTLNIKVKNTQNIDDIFKVNITVSELPAANQANIDWFSWTEQSVKLRAGEEILLPLEVEVPDGTALGLKLFRANVNSETSVVTGFDTGYLKVV | failed
MKQKQFYFIYVFLLSMTFLGACSKDSPNELIPNTIVKIEIDKLPGKRIYFIGEELDVSDMTLKVFYSNETSEIVPVKKDEVTGFNSTVPENDQILEVHKGSFTVTFKIQVLINDIQAISIKTLPSKTVYTLGEPLSLSNMVLEINYADGTIKENSAPSADWVQGFNSSVPAQLQIVTLELDGKQVSFDVQILPVKVDGDKVVSVIDSDFTSITFPDGIRTIGSKAFENKNIKASELLCPASLSTIEQAAFAYCRNLKIVDLSHTSIKELPEEAFLFSGIKKIALPASLEIVGKEAFYGCTDLNVIDISHTSVKELQNGAFGKSGISSISLPSTFKIVGASAFIETKNLKELTLPEGSEVIDLEAFSGSSIQKVTLPNTIYHIDRSFYSCPELTTIETYGTRTTPSPVDRTAAIVSECFNHSPKLTVLKIPASIVKIGISALNKCQVKTLILPASVKALDFNAFGNAVSLDEISLMSPTMVTADYYPVPPGIQKIRVPQNLVETYKQNKAWKPFAEKIVAL | failed
MKQKRLTFLLLLISNLFCASAQKWYKPEIDLKVEELLSQMTVEEKLGYIGGIDWMYTKSIDRLGIHRMRMSDGPQGIGTKGKSTAYPATVTLAATWNENLAYQYGKALGRDCRARNINVILGPAVNIYRAPMCGRNFEYMGEDPYLTSRICVGYIKGVQDQGVMATVKHFVANNSDYDRNNISNDIDERTLNEIYFPAYKAAIQEAEVGAIMTSYNLMNGIYTTENPWLLKEVLRNQWGFKGLVMSDWGSTHYCVPAARSGLDLEMAGGEKMNPKDMAYYLKTGDVTMDMVDEKVRHILRILIAFGFKDGTEADKSIALDDPQSVETA | failed
MKQLLEFIPLILFFAVYKLVGVQAAAITLVLATILQLILVRILFKKLETSQWIVGLSVIIFGILTAYFDDLAFLKWKVTIINGLFAAVLLISQYVFHKPVVKMLLAKELSLPTQVWNRLNLGWAIFFIICMLINIIISQLFSDDTWATFKTFGFTGLSLVAVIITGIYLYPYIKKLENNNEQK | failed
